Test results as given in PMC7404976.

Target: MBP-Vip3Aa11(200-end), the C-terminal fragment of Vip3A toxin with an N-terminal 6xHis-MBP tag (Bacillus thuringiensis strain C9)
Assay: crystal structure; MBP-Vip3Aa(200-end) 7 mg/mL, hanging drop at 18 °C, 0.1 M sodium acetate pH 4.2, 0.5 M potassium formate, 0.1 M ammonium sulfate, 11% PEG4000; space group P21, four molecules in one asymmetric unit, 3.2 Å

## MBP-Vip3Aa11(200-end), the C-terminal fragment of Vip3A toxin with an N-terminal 6xHis-MBP tag (domain or fragment)
  stoichiometry N: 2
